Test results as given in publication PMC12649893 (Biosensors, 2025).
Each block holds one binder with its values, some of them ahead of it.

Columns and labels:
Settings in all cases: both partners purified
[1] = target: T1, Nectin-like protein 5 (NECL-5 or CD155) extracellular fragment (UniProt P15151); assay: BLI; biotinylated FcRn on SA sensors (5 μg/mL, to 1 nm), antibodies 10 μg/mL for 180 s, then antigens 20 μg/mL for 300 s; kinetic buffer pH 6.0, 30 °C; constants from the empirical model Equation (A1), k_diss fixed
T1 construct: Nectin-like protein 5 (NECL-5, CD155, poliovirus receptor), extracellular fragment, residues 28-343 of NP_001129242.2; also called poliovirus receptor; source: CHO, transient transfection, purified (Ni-NTA, SEC Superdex 75)

[2] = target: T1, Nectin-like protein 5 (NECL-5 or CD155) …; assay: BLI; biotinylated FcγRIa on SA sensors (5 μg/mL, to 1 nm), antibodies for 300 s, then antigens 10 μg/mL for 600 s; kinetic buffer pH 7.4, 30 °C; constants from the empirical model Equation (A1), k_diss fixed
[3] = target: T2, Triggering receptor expressed on myeloid cells 2 (TREM-2) extracellular fragment (UniProt Q9NZC2-1); assay: BLI; ProA sensors; antibodies loaded at 10 micrograms/mL for 300 s, antigens 10 μg/mL, association 7200 s; 30 °C, PBS, 0.1% Tween 20, 0.1% BSA, pH 7.4; constants from the empirical model Equation (A1), k_diss fixed
T2 construct: Triggering receptor expressed on myeloid cells 2 (TREM-2), extracellular fragment, residues 19-174 of NP_061838.1; source: CHO, transient transfection, purified (Ni-NTA, SEC Superdex 75)

[4] = target: T3, Blood dendritic cell antigen 2 of macaca fascicularis (cBDCA-2) extracellular fragment (Macaca fascicularis, UniProt A0A2K5UWP4); assay: as above
T3 construct: Blood dendritic cell antigen 2 (BDCA-2) of Macaca fascicularis, extracellular fragment, residues 45-213 of XP_005570080.1; source: CHO, transient transfection, purified (Ni-NTA, SEC Superdex 75)

[5] = target: T1, Nectin-like protein 5 (NECL-5 or CD155) …; assay: BLI; biotinylated FcγRIIIa on SA sensors (5 μg/mL, to 1 nm), antibodies for 300 s, then antigens 10 μg/mL for 300 s; kinetic buffer pH 7.4, 30 °C; constants from the empirical model Equation (A1), k_diss fixed
[6] = target: T1, Nectin-like protein 5 (NECL-5 or CD155) …; assay: BLI; ProA sensors; antibodies loaded at 10 micrograms/mL for 300 s, antigens 10 μg/mL, association 7200 s; 30 °C, PBS, 0.1% Tween 20, 0.1% BSA, pH 7.4; constants from the empirical model Equation (A1), k_diss fixed
[7] = target: T1, Nectin-like protein 5 (NECL-5 or CD155) …; assay: BLI; standard measurement of kinetics with the immobilization of antibodies on AR2G sensors (Sartorius)
[8] = target: T3, Blood dendritic cell antigen 2 of …; assay: BLI; biotinylated FcRn on SA sensors (5 μg/mL, to 1 nm), antibodies 10 μg/mL for 180 s, then antigens 20 μg/mL for 300 s; kinetic buffer pH 6.0, 30 °C; constants from the empirical model Equation (A1), k_diss fixed
[9] = target: T3, Blood dendritic cell antigen 2 of …; assay: BLI; biotinylated FcγRIa on SA sensors (5 μg/mL, to 1 nm), antibodies for 300 s, then antigens 10 μg/mL for 600 s; kinetic buffer pH 7.4, 30 °C; constants from the empirical model Equation (A1), k_diss fixed
[10] = target: T1, Nectin-like protein 5 (NECL-5 or CD155) …; assay: BLI; ProA sensors; antibodies loaded at 10 micrograms/mL for 300 s, antigens 10 μg/mL, association 7200 s; 30 °C, PBS, 0.1% Tween 20, 0.1% BSA, pH 7.4; constants from the empirical model Equation (A1), k_diss fixed; remark: listed apart in the source
[11] = target: T3, Blood dendritic cell antigen 2 of …; assay: BLI; biotinylated FcγRIIIa on SA sensors (5 μg/mL, to 1 nm), antibodies for 300 s, then antigens 10 μg/mL for 300 s; kinetic buffer pH 7.4, 30 °C; constants from the empirical model Equation (A1), k_diss fixed
[12] = target: T3, Blood dendritic cell antigen 2 of …; assay: BLI; ProA sensors; antibodies loaded at 10 micrograms/mL for 300 s, antigens 10 μg/mL, association 7200 s; 30 °C, PBS, 0.1% Tween 20, 0.1% BSA, pH 7.4; constants from the empirical model Equation (A1), k_diss fixed; remark: listed apart in the source
[13] = target: T3, Blood dendritic cell antigen 2 of …; assay: BLI; standard measurement of kinetics with the immobilization of antibodies on AR2G sensors (Sartorius)

T1 sequence (P15151 28-343): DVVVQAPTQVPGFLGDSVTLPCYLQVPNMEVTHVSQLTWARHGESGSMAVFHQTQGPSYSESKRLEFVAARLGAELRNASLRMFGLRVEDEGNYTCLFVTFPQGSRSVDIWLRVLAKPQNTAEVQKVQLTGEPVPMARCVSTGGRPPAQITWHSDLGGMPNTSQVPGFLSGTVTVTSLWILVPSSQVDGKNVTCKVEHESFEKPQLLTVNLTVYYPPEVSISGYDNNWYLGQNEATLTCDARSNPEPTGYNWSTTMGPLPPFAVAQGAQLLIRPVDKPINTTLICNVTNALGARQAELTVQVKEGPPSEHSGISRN
T2 sequence (Q9NZC2 19-174): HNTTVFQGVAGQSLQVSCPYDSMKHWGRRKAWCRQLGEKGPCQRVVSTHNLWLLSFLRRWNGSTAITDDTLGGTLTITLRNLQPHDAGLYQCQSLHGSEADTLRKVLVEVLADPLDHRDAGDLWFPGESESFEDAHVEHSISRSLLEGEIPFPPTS

kon [1]: 20000 M⁻¹ s⁻¹
kon [2]: 99000 M⁻¹ s⁻¹
binding result [3]: no binding (tested: 10 μg/mL)
binding result [4]: no binding (tested: 10 μg/mL)
kon [5]: 39500 M⁻¹ s⁻¹
kon [6]: 52000 M⁻¹ s⁻¹
koff [7]: 0.00105 s⁻¹
kon [7]: 179000 M⁻¹ s⁻¹
B1: AB2 antibody specific to NECL-5 (NTX1088) (antibody, V domains shown)
VH: QVQLVQSGAEVKKPGASVKVSCKATGYTFSNYWIEWVRQAPGQGLEWIGEIFPGSGRINFNEKFKGRVTFTADTSISTTYMELSRLRSDDTAVYYCARTKIYGNSFDYWGQGTLVTVSS
VL: DIQMTQSPSSLSASVGDRVTITCKASQDVGTAVVWYQQKPGKAPKLLIYWASSRHEGVPDRFSGSGSGTDFTLTISSLQPEDFADYFCQQYSRYPLTFGQGTKLEIK

kon [8]: 180000 M⁻¹ s⁻¹
kon [9]: 265000 M⁻¹ s⁻¹
binding result [3]: no binding (tested: 10 μg/mL)
binding result [10]: no binding (tested: 10 μg/mL)
kon [11]: 470000 M⁻¹ s⁻¹
kon [12]: 12000 M⁻¹ s⁻¹
koff [13]: 3.72e-05 s⁻¹
kon [13]: 134000 M⁻¹ s⁻¹
B2: AB1 antibody specific to BDCA-2 (BIIB059) (antibody, V domains shown)
VH: DVQLVESGGGLVKPGGSLRLSCAASGFTFSTYTMSWVRQAPGKGLEWVATISPGDSFGYYYPDSVQGRFTISRDNAKNSLYLQMNSLRAEDTAVYYCTRDIYYNYGAWFAYWGQGTLVTVSS
VL: DIQLTQSPSSLSASVGDRVTITCKASQSVDYDGDSYMNWYQQKPGKAPKLLIYAASTLESGVPSRFSGSGSGTDFTLTISSLQPEDFATYYCQQANEDPRTFGQGTKVEIK
